From US20030023055 come the findings set out here.

B1: FLAG®-tagged Atr-2 protein (73 kDa Atr-2 truncated protein encoded by pCIneoFLAGATR2) (protein)
chain: MLVAELRRVTVLWDELWLGVLLQQHMYVLRRIQQLEDEVKRVQNNNTLRKEEKIAIMREKHTALMKPIVFALEHVRSITAAPAETPHEKWFQDNYGDAIENALEKLKTPLNPAKPGSSWIPFKEIMLSLQQRAQKRASYILRLEEISPWLAAMTNTEIALPGEVSARDTVTIHSVGGTITILPTKTKPKKLLFLGSDGKSYPYLFKGLEDLHLDERIMQFLSIVNTMFATINRQETPRFHARHYSVTPLGTRSGLIQWVDGATPLFGLYKRWQQREAALQAQKAQDSYQTPQNPGIVPRPSELYYSKIGPALKTVGLSLDVSRRDWPLHVMKAVLEELMEATPPNLLAKELWSSCTTPDEWWRVTQSYARSTAVMSMVGYIIGLGDRHLDNVLIDMTTGEVVHIDYNVCFEKGKSLRVPEKVPFRMTQNIETALGVTGVEGVFRLSCEQVLHIMRRGRETLLTLLEAFVYDPLVDWTAGGEAGFAGAVYGGGGQQAESKQSKREMEREITRSLFSSRVAEIKVNWFKNRDEMLVVLPKLDGSLDEYLSLQEQLTDVEKLQGKLLEEIEFLEGAEGVDHPSHTLQHRYSEHTQLQTQQRAVQEAIQVKLNEFEQWITHYQAAFNNLEATQLASLLQEISTQMDLGPPSYVPA
Take B1: the “kinase activity (32P-ATP incorporation, P81 paper, Cerenkov radiation)” value (“kinase activity” below) is “able to phosphorylate the Atr-2 protein itself”. For the same protein, the “kinase activity” value with myelin basic protein was “able to phosphorylate the Atr-2 protein itself and the exogenous myelin basic protein substrate”. The “kinase activity” value with histone H1 is “did not phosphorylate PHAS-1 or histone H1”. In the data set with PHAS-1, the “kinase activity” value is given as “did not phosphorylate PHAS-1 or histone H1”.
